Here are results for one molecule from patent publication US20220281986A1 (RESEARCH FOUNDATION FOR THE STATE UNIVERSITY OF NEW YORK, published 2022).

For the test, the target named is T1, peptide corresponding to the N-terminal domain of CXCR4 (biotinylated (position not given)).
T1 construct: Synthetic peptide (ABclonal), biotinylated and captured on neutravidin-coated plates; also called CXCR4 N-terminal domain; NTD of CXCR4
T1 peptide: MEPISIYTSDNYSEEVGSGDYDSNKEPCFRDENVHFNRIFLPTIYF
The test is described as follows: ELISA; serially diluted scFv on biotinylated CXCR4 N-terminal peptide captured on neutravidin. As to the method:
The binding affinity of the anti-CXCR4 scFv was assessed with an ELISA. Purified anti-CXCR4 scFvs were serially diluted and added to a 96-well plate that was first coated with neutravidin and then coated with the biotinylated CXCR4 N-terminal peptide domain. Anti-FLAG-HRP conjugate (Sigma Aldrich) served as the primary antibody. 100 μL of Ultra-TMB substrate (Thermo Fisher Scientific) was added to quantify the amount of bound anti-CXCR4 scFv. The reaction was then quenched with 12.5 M H₂SO₄ aqueous solution. Readings were taken using a plate reader with the wavelength set to 450 nm.

B1: CXCR4-scFv (scFv)
scFv: QSVLTQPPSASGTPGQRVTISCSGSSSNIGSNYVYWYQQLPGTAPKLLIYRNNQRPSGVPDRFSGSKSGTSASLAISGLRSEDEGDYYCATWDDSLSGVVFGGGTKLTVLGEGKSSGSGSESKASQVTLKESGAEVKKPGASVKVSCKASGYTFTNFYIHWVRRAPGQGLEWMGIINPSDGRTTYAQKFQGRVTMTRDTSTSTLYMELTSLRSEDTAVYYCGRGGHYSNYFGQPSTWGQGTLVTVSVEASHHHHHH
modifications: labeled with DyLight 650 (NHS ester) in the cell binding and imaging assays; unlabeled in the ELISA
notes: also called scFv#c; anti-CXCR4 scFv
B1: the Kd is 114 nM.
